In test [1] the target is T1, full-length human TIGIT on cells (human, UniProt Q495A1 22-244).
T1 construct: whole, on cells; The same protein is used for CHO-hTIGIT, PBMC and NK92-hTIGIT; the cells are named under assay; also called CHO-hTIGIT; hTIGIT
T1 sequence (looked up): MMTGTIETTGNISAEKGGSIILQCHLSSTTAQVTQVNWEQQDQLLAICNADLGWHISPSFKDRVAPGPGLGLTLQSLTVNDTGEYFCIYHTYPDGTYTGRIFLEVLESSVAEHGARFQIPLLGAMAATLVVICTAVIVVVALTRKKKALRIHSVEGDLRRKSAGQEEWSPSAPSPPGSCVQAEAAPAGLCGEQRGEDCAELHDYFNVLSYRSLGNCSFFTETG
The test can be described thus: FACS titration on CHO-hTIGIT cells, PE goat anti-mouse IgG. As for the experimental part: (§1) The CHO-engineered cells CHO-hTIGIT cells recombinantly expressing full-length human TIGIT to be detected were counted, centrifuged at 300 g for 5 min, resuspended in an FCM buffer and cell density was adjusted to 4E+06 cell/mL for later use. A sample to be detected (including a positive control antibody and a mouse monoclonal antibody) was diluted with the FCM buffer to 20 μg/mL, and then the FCM buffer was used to perform 3× serial dilutions of 12 concentration points; and the isotype control antibody was diluted with the FCM buffer to 20 μg/mL. According to an experimental design, in each well, 50 μL of the antibody and 50 μL of the cell (the amount of each cell added into a 96-well V-shaped plate being 2E+05 cells/well) were respectively added in the 96-well V-shaped plate; and incubation in dark was performed on ice for 30 min. Centrifugation (300 g/5 min) was performed; supernatant was discarded; 200 μL of the FCM buffer was added for washing once; centrifugation (300 g/5 min) was performed; and the supernatant was discarded. […] Centrifugation (300 g/5 min) was performed; supernatant was discarded; 200 μL of the FCM buffer was added once for washing once; centrifugation (300 g/5 min) was performed; and the supernatant was discarded. 100 μL of the 1×PBS was added for resuspending, and on-machine detection was performed.

The target of test [2] is T2, full-length cynoTIGIT on CHO cells (monkey (cyno), UniProt A0A7N9I9V4 89-312).
T2 construct: whole, on cells; also called CHO-cynoTIGIT; monkey TIGIT
Kind of test: FACS titration on CHO-cynoTIGIT cells, PE goat anti-mouse IgG. As for the experimental part: In order to verify that the anti-human TIGIT antibody binds to a monkey TIGIT, the following experiments were specifically performed. The CHO-engineered cell CHO-cynoTIGIT cells recombinantly expressing full-length […] cynoTIGIT were counted; centrifugated at 300 g for 5 min; resuspended with an FCM buffer; and cell density was adjusted to 4E+06 cell/mL for later use.
Samples to be detected (including a positive control antibody and a mouse monoclonal antibody) were diluted with the FCM buffer to 20 μg/mL, and then the FCM buffer was used to perform 3× serial dilutions of 12 concentration points; and an isotype control antibody was diluted with the FCM buffer to 20 μg/mL. According to an experimental design, in each well, 50 μL of the antibody and 50 μL of the cell (the volume of each cell added into a 96-well V-shaped plate being 2E+05 cell/well) were respectively added in the 96-well V-shaped plate; and incubation was performed in dark on ice for 30 min. Centrifugation (300 g/5 min) was performed; supernatant was discarded; 200 μL of the FCM buffer was added for washing once; centrifugation (300 g/5 min) was performed; and the supernatant was discarded. […] Centrifugation (300 g/5 min) was performed; supernatant was discarded; 200 μL of the FCM buffer was added for washing once; centrifugation (300 g/5 min) was performed; and the supernatant was discarded. 100 μL of the 1×PBS was added for resuspending, and on-machine detection was performed.

Test [3] deals with T1, full-length human TIGIT on cells. The test can be described thus: FACS titration on CHO-hTIGIT cells; span of the fitted curve, unit from the y axis. As for the experimental part: as §1
The target of another test is T3, hTIGIT-hFc (human, UniProt Q495A1 22-141).
T3 construct: also called antigen protein hTIGIT-hFc; human TIGIT recombinant protein carrying a human Fc tag; not shown: human Fc tag
T3 sequence (looked up): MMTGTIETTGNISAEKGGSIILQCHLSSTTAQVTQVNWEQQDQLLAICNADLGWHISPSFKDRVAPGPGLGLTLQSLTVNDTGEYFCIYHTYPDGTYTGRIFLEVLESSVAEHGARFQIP
The test can be described thus: FACS blocking: hTIGIT-hFc bound on U2-OS cells (PVR and CD112), then antibody, APC anti-human IgG Fc; first row of the table, row head not given; unit from the x axis Log[µg/mL]. As for the experimental part:
U2-OS cells to be detected (human osteosarcoma cells, naturally and highly expressing PVR and CD112 by means of detection) were counted; centrifugated at 300 g for 5 min; resuspended with an FCM buffer; and cell density was adjusted to 4E+06 cell/mL for later use. […] According to an experimental design, in each well, 50 μL of the antigen protein and 50 μL of the cell (the volume of each cell added into a 96-well V-shaped plate being 2E+05 cell/well) were respectively added in the 96-well V-shaped plate; and incubation was performed in dark on ice for 30 min. Centrifugation (300 g/5 min) was performed; supernatant was discarded; 200 μL of the FCM buffer was added for washing once; centrifugation (300 g/5 min) was performed; and the supernatant was discarded. The antibody was added to the 96-well V-shaped plate (in 100 μL/well); and incubation was performed in dark on ice for 30 min. Centrifugation (300 g/5 min) was performed; supernatant was discarded; 200 μL of the FCM buffer was added for washing once; centrifugation (300 g/5 min) was performed; and the supernatant was discarded. Secondary antibodies (APC anti-human IgG Fc, 1:500 dilution) were added to the 96-well V-shaped plate (in 100 μL/well); and incubation was performed in dark on ice for 30 min. Centrifugation (300 g/5 min) was performed; supernatant was discarded; 200 μL of the FCM buffer was added for washing once; centrifugation (300 g/5 min) was performed; and the supernatant was discarded. 100 μL of the 1×PBS was added for resuspending, and on-machine detection was performed.

Residue numbers refer to the chain shown, from its start.

T2 sequence (A0A7N9I9V4 entry or part of it): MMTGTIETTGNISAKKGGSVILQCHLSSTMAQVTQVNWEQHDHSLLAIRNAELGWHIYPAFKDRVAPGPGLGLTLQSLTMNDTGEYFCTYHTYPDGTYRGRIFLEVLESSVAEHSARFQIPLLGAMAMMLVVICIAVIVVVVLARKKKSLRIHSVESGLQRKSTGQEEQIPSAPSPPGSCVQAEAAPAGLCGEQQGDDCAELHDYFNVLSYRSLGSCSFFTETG

B1: 3Tigit-16 mouse monoclonal antibody (antibody, V domains shown)
VH: EVQLQQSGPELVKPGASVKMSCKASGFTFTDYFMDWVKQSRGASFEWIGRLNPNNGRTSYNQKFKGKATLTVDKSSSTAYMELNSLTSEDSAVYYCARGDLGRWYFDVWGAGTTVTVSS
VL: QIVLTQSPAIMSASPGEKVTMTCSASSSVSYMHWYQQKSGTSPKRWIYDTSKLASGVPTRFSGSGSGTSYSLTISSMEAEDAASYFCQQWSSNSLTFGAGTKLELKR
notes: Mouse monoclonal antibody from hybridoma
As a reminder, the EC50 is the concentration at which the effect is half-maximal. Usually IC50 stands for the concentration needed to halve the response being measured. B1: the EC50 was determined as 0.383 nM in test [1] and 0.758 nM in test [2]. For the same molecule, the Span in test [3] was found to be 34600 MFI-PE. This molecule also displayed an IC50 with hTIGIT-hFc of 0.636 µg/mL.

B2: 3Tigit-29 mouse monoclonal antibody (antibody, V domains shown)
VH: EVQLQQSGPELVKPGASVKISCKASGYTFTDYNMHWVKQSLGKSLEWIGYVNSFNGNTGYSQKFKSKVTLTVDRSSRTAYMDLRSLTSEDSAVFYCARSSRGGFAYWGQGTLVTVSA
VL: B1 VL with T59A, G65V, S84T, F86Y
notes: as for B1
Take B2: the EC50 in test [1] stood at 0.388 nM; in test [2] it was 0.506 nM. For the same molecule, the Span in test [3] was found to be 30600 MFI-PE. In the test with hTIGIT-hFc, this molecule registered an IC50 of 0.628 µg/mL.

B3: 14Tigit-1-1 mouse monoclonal antibody (antibody, V domains shown)
VH: DVQLQESGPGLVKPSQSLSLTCTVTGYSITSDYAWNWIRQFPGNKLEWMGYISYSGSTRSNPSLKSRISITRDTSKNQFFLQLNSMTAEDTATYYCGGWEVRNYYAMDYWGQGTSVTVSS
VL: DIVMTQSHKFMSTSVGDRVSITCKASQHVSTAVAWYQQKPGQSPKLLIYSASYRYTGVPDRFTGSGSGTDFTFTISSVQAEDLAVYYCQQHYNTPWTFGGGTKLEIKR
notes: as for B1
As for B3, the EC50 in test [1] was 0.452 nM.

B4: 3Tigit-12 mouse monoclonal antibody (antibody, V domains shown)
VH: QVQLQQSGAELVRPGTSVKMSCKAAGYTFTNYWIGWVKQRPGHGLEWIGDIYPGGGYTNYDEKFKGKATLTADTSSRTAYMQLSSLTSEDSAIYHCVNGGYGSTYGYFDVWGAGTTVTVSS
VL: DIVMSQSPSSLPVSVGEKVTMSCKSSQSLLFSSDQKNYLAWYQQKPGQSPKLLIYWASTRESGVPDRLTGSGSGTDFTLTISSVKAEDLAVYYCQQYHKYPFTFGGGTKLEIKR
notes: as for B1
As to B4, the EC50 in test [1] amounted to 0.473 nM; in test [2] it was 0.354 nM. In addition, the half-maximal inhibitory concentration (IC50) with hTIGIT-hFc was determined as 0.543 µg/mL.

B5: Tigit-5 mouse monoclonal antibody (antibody, V domains shown)
VH: QVQLQQPGAELVRPGASVKLSCKASGYSFTSYWMNWVKQRPGQGLEWIGMIRPSDSETRLNQMFKDKATLTVDKSSSTAYMQLSSPTSDDSAVYYCAGIHDYGHGAYWGQGTLVTVSA
VL: DIQMIQSPASLSVSVGETVTITCRASENIYSNLAWYQQKQGKSPQLLVYAASHLPDGVPSRFSGSGSGTQYSLKINSLQSEDFGSYYCQHFWGTPRTFGGGTKLEIKR
notes: as for B1
Take B5: the EC50 in test [1] was 0.197 nM; in test [2], 0.426 nM. In test [3], this molecule came in with a Span of 21000 MFI-PE.

Source of the values: patent US20240002500A1 (GUANGDONG FAPON BIOPHARMA, published 2024).
